The supplement of paper PMC7877785
± gives the uncertainty stated by the source.

Test: self-splicing fitness, log relative to wild type (ln ratio); higher = more splicing; Tetrahymena group I intron in knt gene, E. coli kanamycin selection, DiMSum; sequences stand for … in CUCUCU…GGAGGGAAAAGUUAUCAGGCAUGCACCUGGUAGCUAGUCUUUAAACCAAUAGAUUGCAUCGGUUUAAAAGGCAAGACCGUCAAAUUGCGGGAAAGGGGUCAACAGCCGUUCAGUACCAAGUCUCAGGGGAAACUUUGAGAUGGCCUUGCAAAGGGUAUGGUAAUAAGCUGACGGACAUGGUCCUAACCACGCAGCCAAGUCCUAAGUCAACAGAUCUUCUGUUGAUAUGGAUGCAGUUCACAGACUAAAUGUCGGUCGGGGAAGAUGUAUUCUUCUCAUAAGAUAUAGUCGGACCUCUCCUUAAUGGGAGCUAGCGGAUGAAGUGAUGCAACACUGGAGCCGCUGGGAACUAAUUUGUAUGCGAAAGUAUAUUGAUUAGUUUUGGAGUACUCGUGGUCG
In short: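 DiMSum derived fitness as the error-weighted combination of fold changes across replicates, kanamycin versus no kanamycin, normalised to wild type. E. coli BL21(DE3) held the library, which randomised all eight P1ex-region intron nucleotides within the knt kanamycin-resistance gene on pET-22b(+). Six replicate transformations grew overnight at 37°C or 30°C on LB agar with or without 25 μg/mL kanamycin, also containing 100 μg/mL carbenicillin, 50 μM IPTG and 0.2% rhamnose, and pooled colonies were amplicon-sequenced on an Illumina HiSeq 2500.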

Sequence | self-splicing fitness (ln) (30 °C) | self-splicing fitness (ln) (37 °C)
GGCCAGCAAUAUUACGAGCA | -0.969 ± 0.077 | -0.145 ± 0.084
UGGGAGCAAUAUUACGAGAG | -3.13 ± 0.32 | -2.85 ± 0.36
UUUCAGCAAUAUUACGAGUU | -2.96 ± 0.25 | -2.06 ± 0.19
AAUCAGCAAUAUUACGGAGU | -0.488 ± 0.047 | 0.346 ± 0.064
UGGUAGCAAUAUUACGGCCG | -1.62 ± 0.29 | -0.342 ± 0.32
CAAUAGCAAUAUUACGUAAU | -3.35 ± 0.21 | -1.92 ± 0.18
GCUCAGCAAUAUUACGAUCG | -1.02 ± 0.1 | 0.77 ± 0.13
GGAGAGCAAUAUUACGAGAU | -2.5 ± 0.36 | -2.14 ± 0.34
CUUGAGCAAUAUUACGAAUU | -3.53 ± 0.33 | -3.19 ± 0.47
CGUAAGCAAUAUUACGCGGC | -2.84 ± 0.25 | -2.23 ± 0.3
AUUAAGCAAUAUUACGGCGA | -0.67 ± 0.12 | -0.121 ± 0.14
AAUCAGCAAUAUUACGGAGA | -0.814 ± 0.085 | -1.04 ± 0.1
CCCCAGCAAUAUUACGAGUC | -3.78 ± 0.14 | -3.03 ± 0.17
UGGCAGCAAUAUUACGUGCA | -0.0165 ± 0.1 | -0.0321 ± 0.14
UGGAAGCAAUAUUACGACAA | -1.46 ± 0.14 | -1.88 ± 0.17
CCGCAGCAAUAUUACGUUCU | -3.87 ± 0.19 | -3.16 ± 0.26
UCGCAGCAAUAUUACGUUGA | -3.11 ± 0.23 | -1.06 ± 0.14
GAGGAGCAAUAUUACGGUUU | -2.44 ± 0.13 | -2.28 ± 0.16
UUUUAGCAAUAUUACGCCGU | -2.64 ± 0.32 | -2.8 ± 0.44

Sequence | self-splicing fitness (ln) (30 °C) | self-splicing fitness (ln) (37 °C)
GAUCAGCAAUAUUACGGAGA | -2.08 ± 0.17 | -0.869 ± 0.14
UGAUAGCAAUAUUACGGGGA | -3.16 ± 0.39 | -1.8 ± 0.26
UGUUAGCAAUAUUACGAAUU | -1.44 ± 0.11 | -1.6 ± 0.22
UGAUAGCAAUAUUACGGAAG | -1.99 ± 0.14 | -1.64 ± 0.21
CCUCAGCAAUAUUACGCUCA | -2.6 ± 0.39 | -1.74 ± 0.22
UCUUAGCAAUAUUACGACCG | -1.95 ± 0.36 | -0.528 ± 0.34
GGCGAGCAAUAUUACGGUGA | -2.82 ± 0.089 | -1.39 ± 0.081
AAUUAGCAAUAUUACGAUAA | -0.869 ± 0.098 | -0.069 ± 0.14
GAUCAGCAAUAUUACGACCC | -2.02 ± 0.2 | -1.65 ± 0.29
UGCCAGCAAUAUUACGCGAC | -2.62 ± 0.3 | -0.608 ± 0.23
CGAUAGCAAUAUUACGGUCU | -0.529 ± 0.072 | 0.511 ± 0.097
GUGGAGCAAUAUUACGUCAU | -4.2 ± 0.32 | -3.24 ± 0.33
GGUUAGCAAUAUUACGGUUC | -0.571 ± 0.086 | -0.114 ± 0.11
UCCAAGCAAUAUUACGAACG | -2.64 ± 0.15 | -1.62 ± 0.23
AUCUAGCAAUAUUACGCAGA | -3.1 ± 0.49 | -1.82 ± 0.23
CCAGAGCAAUAUUACGUCUA | -2.37 ± 0.19 | -2.23 ± 0.24
GUCCAGCAAUAUUACGGCCA | -0.678 ± 0.13 | -0.279 ± 0.14
GGUAAGCAAUAUUACGGUUC | -0.52 ± 0.16 | -0.621 ± 0.17
